Experimental data reported in patent US7943319B2, “Utility of RET mutant in diagnosis and treatment of melanoma” (John Wayne Cancer Institute, priority 2007, dated 2011).
“Also recorded” adds a separate entry of the source. Each block holds one molecule with its values, some of them ahead of it.

Tests used:
ME7 cells (RETmt/BRAFwt) = test: Blocking assay of GDNF-induced proliferation; format: cell-based, human; conditions: pre-treated 60 min with 10 μM PD98059 or 100 nM wortmannin, then 25 ng/ml GDNF for 72 hrs
Procedure: (§1) Cell proliferation 48 and 72 hrs after GDNF treatment (5, 25 or 50 ng/ml, dissolved in water) in serum-free medium was analyzed by 3-(4,5-dimethylthiazol-2-yl)-2,5-diphenyltetrazolium bromide (MTT) and direct cell counting with a light microscope, respectively. MTT (0.4 mg/ml, Sigma-Aldrich, St. Louis, Mo.) was added into culture wells after washing with PBS. The converted dye was dissolved with DMSO 2 hrs after incubation at 37° C. and the absorbance was measured at a wavelength of 550 nm with a microplate reader (Bio-Rad). For cell counting, cells were harvested after washing with PBS and the number of cells was counted using a hemocytometer under a microscope. In blocking assays, cells were pre-treated with 10 μM of a MEK1 inhibitor, PD98059 (Cell Signaling Technology), or 100 nM of a PI3K inhibitor, wortmannin (Cell Signaling Technology), for 60 min before treatment of GDNF as indicated in the instructions from the company, and followed by 25 ng/ml of GDNF treatment for 72 hrs. To avoid the effect of the delivery agent on cells, PD98059 and wortmannin were dissolved in PBS, and the same amount of PBS was added to control (GDNF(−)) and GDNF-treated cells.

RET = RET (Homo sapiens, UniProt P07949); conditions: cited from earlier work
RETmt thyroid cancers = conditions: cited from earlier work
[1] = molecular target: RET G691S mutant (RETmt), endogenous on melanoma cells (human) (UniProt P07949); test: cell-based or functional assay
ERK1/2 = test: Western blotting of phosphorylated ERK1/2 after GDNF; format: cell-based, human; conditions: 25 ng/ml GDNF
Procedure: (§2) Cells were washed twice with ice-cold phosphate-buffered saline (PBS) and dissolved in solubilizing buffer (pH 7.5, 20 mM Tris-HCL, 12.5 mM β-glycerophosphate, 2 mM EGTA, 10 mM NaF, 1 mM benzamide, 1% NP-40, 1 mM Na3VO4, 1× protease inhibitor mix) after treatment with 25 μg human recombinant GDNF (Chemicon International, Temecula, Calif.). Each aliquot of protein (10 μg) was subjected to Western blotting analysis. After electrophoresis on 12.5% polyacrylamide gels, the protein was transblotted to Hybond™-P (Amersham Life Sciences, Inc., Arlington Heights, Ill.) in transfer buffer (192 mM glycine, 25 mM Tris, 2.5 mM SDS, and 10% methanol). The blots were blocked with 5% non-fat dry milk, and then incubated with anti-ERK 1/2 rabbit polyclonal Ab, or anti-phosphorylated ERK 1/2 rabbit polyclonal Ab (1:1000, Phosphoplus® p44/42 MAP Kinase (Thr202/Tyr204) Antibody kit, Cell Signaling Technology, Danvers, Mass.), and then incubated with an horse radish peroxidase (HRP)-conjugated anti-rabbit IgG Ab (1:2000, Cell Signaling Technology). As for Western blotting of Akt, anti-Akt rabbit polyclonal Ab, or anti-phosphorylated Akt rabbit polyclonal Ab (1:500, Phosphoplus® Akt (Ser473) Antibody Kit, Cell Signaling Technology) and a secondary Ab, HRP-conjugated anti-rabbit IgG Ab (1:1000), were used. Subsequently, the blots were developed with ECL Plus Western blotting Detection system (GE Healthcare Life Sciences, Piscataway, N.J.) according to the manufacturer instructions.

[2] = system: melanoma cells (RETmt and RETwt); test: Migration assay (Transwell chamber) with GDNF; format: cell-based, human; conditions: RETmt cells compared with RETwt cells; 5 or 25 ng/ml GDNF, 48 hrs
Procedure: Migration ability of the melanoma cells was determined with a modified technique using a Transwell® chamber with a microporous membrane (membrane diameter 6.5 mm, pore size 8 μm, CORNING, Corning, N.Y.) (29). Melanoma cells were seeded in the upper chamber with RPMI 1640 culture medium (Invitrogen) with 2% fetal bovine serum (FBS). The lower chamber contained RPMI 1640 culture medium with 2% FBS and 5 or 25 ng/ml of GDNF. The cells that migrated through the membrane and adhered to the bottom of lower chamber were fixed with 80% ethanol and stained with hematoxylin 48 hrs after incubation at 37° C. The number of stained cells was counted in a total of 5 fields under a microscope with 200× magnification. In blocking assays, cells were pre-treated with wortmannin (100 nM) for 60 min before treatment of GDNF as indicated in the instructions from the company and followed by treatment with 25 ng/ml GDNF for 48 hrs. To avoid the effect of the delivery agent on cells, wortmannin was dissolved in PBS, and the same amount of PBS was added to control (GDNF(−)) and GDNF-treated cells.

Akt = test: Western blotting of phosphorylated Akt after GDNF; format: cell-based, human; conditions: 25 ng/ml GDNF
Procedure: as §2

[3] = system: melanoma cells (ME1, ME7, ME3); test: Actin polymers staining by Alexa Fluor 568 phalloidin; format: cell-based, human; conditions: 10 ng/ml GDNF, 48 hrs
Procedure: Melanoma cells were seeded in BD BioCoat™ CultureSlides (BD Biosciences, San Jose, Calif.). Cells were washed twice with PBS and fixed with 3.7% formaldehyde solution in PBS for 10 min at room temperature after a 48 hr incubation with GDNF (10 ng/ml) at 37° C. Fixed cells were stained with 1 U/200 μl of PBS Alexa Fluor® 568 phalloidin (Invitrogen) for 20 min at room temperature. After washing twice with PBS, actin polymers were observed using fluorescence microscopy with 400× magnification.

[4] = system: melanoma cells (RETmt and RETwt); test: Cell proliferation by GDNF (MTT assay); format: cell-based, human; conditions: 48-hr exposure to GDNF, serum-free medium
Procedure: as §1

[5] = system: melanoma cells (RETmt and RETwt); test: QCM Collagen-based Invasion Assay with GDNF; format: cell-based, human; conditions: RETmt cells compared with RETwt cells; 25 ng/ml GDNF, 60 hrs
Procedure: Invasion ability of the melanoma cells was analyzed using QCM™ Collagen-based Invasion Assay MILLIPORE, Billerica, Mass.), as described in previous reports (27, 29). Cells were seeded in the upper chamber with RPMI 1640 culture medium (Invitrogen) with 2% FBS containing GDNF. The lower chamber contained RPMI 1640 culture medium with 5% FBS and GDNF with same concentration as the upper chamber (25 ng/ml). Cells invading the collagen-coated membrane were fixed and stained 60 hrs after incubation at 37° C. using reagents provided by MILLIPORE, according to the manufacturer's instructions. Stained cells were dissolved with a provided reagent and measured at a 550 nm wavelength with a microplate reader (Bio-Rad). In the blocking assay, cells were pre-treated with 1 μg/ml of a goat anti-human polyclonal RET-specific Ab, which binds to the extracellular domain of RET (R&D Systems), or 1 μg/ml control goat IgG (Santa Cruz Biotechnology) as a control 60 min before treatment with GDNF and followed by treatment with 25 ng/ml GDNF for 60 hrs.

Chain of RET (P07949 29-1114): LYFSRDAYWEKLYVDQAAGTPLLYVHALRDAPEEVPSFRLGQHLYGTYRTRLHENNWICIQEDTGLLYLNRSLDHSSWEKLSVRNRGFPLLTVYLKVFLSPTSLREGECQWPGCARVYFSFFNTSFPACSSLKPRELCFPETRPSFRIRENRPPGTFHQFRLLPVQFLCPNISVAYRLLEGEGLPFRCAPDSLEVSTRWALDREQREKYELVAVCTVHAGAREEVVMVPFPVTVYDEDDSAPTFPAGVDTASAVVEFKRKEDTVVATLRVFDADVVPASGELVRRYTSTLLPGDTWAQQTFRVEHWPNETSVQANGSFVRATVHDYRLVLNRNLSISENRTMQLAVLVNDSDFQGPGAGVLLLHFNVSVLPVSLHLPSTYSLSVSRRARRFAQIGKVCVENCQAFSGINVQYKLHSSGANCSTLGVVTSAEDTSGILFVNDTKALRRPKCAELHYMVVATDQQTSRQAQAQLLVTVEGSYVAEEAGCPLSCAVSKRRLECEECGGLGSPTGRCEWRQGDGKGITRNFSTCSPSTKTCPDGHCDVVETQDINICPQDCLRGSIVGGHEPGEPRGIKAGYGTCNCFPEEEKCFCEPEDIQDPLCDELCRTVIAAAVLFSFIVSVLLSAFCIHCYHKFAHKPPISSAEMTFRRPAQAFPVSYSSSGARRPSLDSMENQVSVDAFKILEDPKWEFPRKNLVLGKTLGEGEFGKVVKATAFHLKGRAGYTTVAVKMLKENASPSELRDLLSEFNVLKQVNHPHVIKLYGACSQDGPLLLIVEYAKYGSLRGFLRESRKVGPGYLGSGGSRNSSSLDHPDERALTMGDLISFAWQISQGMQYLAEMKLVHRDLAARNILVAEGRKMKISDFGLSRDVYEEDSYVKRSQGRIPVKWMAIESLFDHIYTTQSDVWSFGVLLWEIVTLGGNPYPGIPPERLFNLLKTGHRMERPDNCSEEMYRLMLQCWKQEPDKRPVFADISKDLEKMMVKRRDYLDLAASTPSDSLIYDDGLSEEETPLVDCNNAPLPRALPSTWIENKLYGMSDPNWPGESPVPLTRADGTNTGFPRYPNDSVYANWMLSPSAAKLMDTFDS
Chain of RET G691S mutant (RETmt), endogenous on melanoma cells (human) (P07949 29-1114 G691S): as the sequence (P07949 29-1114) above, with G663S counted along it

Molecule: COc1cccc(-c2cc(=O)c3ccccc3o2)c1N [PD98059]
- suppression of GDNF-induced proliferation (ME7 cells (RETmt/BRAFwt)): significantly blocked; also recorded: completely suppressed

Molecule: CNC(=O)c1cc(Oc2ccc(NC(=O)Nc3ccc(Cl)c(C(F)(F)F)c3)cc2)ccn1 [Sorafenib]
- RET signaling (RET): can block
- kinase activity of RET (RET): directly suppresses
- lysosomal degradation of RET protein (RET): promotes
- growth of RETmt thyroid cancers (RETmt thyroid cancers): suppress growth

- suppression by RET siRNA of GDNF-induced cell proliferation in ME1 (MTT assay) [1]: > 80%
Molecule: human recombinant GDNF (glial cell line-derived neurotrophic factor) (from UniProt P39905 78-211) (ligand)

B1: GDNF: human recombinant GDNF (Chemicon International), major ligand of RET (protein)
chain: SPDKQMAVLPRRERNRQAAAANPENSRGKGRRGQRGKNRGCVLTAIHLNVTDLGLGYETKEELIFRYCSGSCDAAETTYDKILKNLSRNRRLVSDKVGQACCRPIAFDDDLSFLDDNLVYHILRKHSAKRCGCI
- phosphorylation of ERK1/2 (ERK1/2; ME1 (RETmt/BRAFmt), ME7 (RETmt/BRAFwt)): more intense phosphorylation; also recorded: strongly phosphorylated
- duration of phosphorylation of ERK1/2 (ERK1/2; ME1, ME7): 60 min
- time to strong phosphorylation of ERK1/2 after treatment (ERK1/2; ME1, ME7): ≤ 15 min
- phosphorylation of ERK1/2 (ERK1/2; ME3 (RETwt/BRAFwt)): weak phosphorylation
- migration after GDNF stimulation [2]: more vigorous
- phosphorylation of Akt (Akt; ME1 (RETmt/BRAFmt), ME5 (RETmt/BRAFwt)): strongly phosphorylated
- duration of phosphorylation of Akt (Akt; ME1, ME5): 60 min
- time to strong phosphorylation of Akt after treatment (Akt; ME1, ME5): ≤ 15 min
- phosphorylation of Akt (Akt; ME3 (RETwt/BRAFwt)): weak phosphorylation
- actin polymerization (filopodia) ([3]; RETmt cell lines ME1, ME7): induced intensely; also recorded: induced filopodia
- actin polymerization (filopodia) ([3]; RETwt cell line ME3): no actin polymerization induced
- cell proliferation on GDNF exposure ([4]; RETmt melanoma cells): enhanced proliferation
- cell proliferation on GDNF exposure ([4]; RETwt melanoma cells): but not RETwt melanoma cells
- invasion after GDNF stimulation [5]: more vigorous
